Experimental data as given in patent publication US20180237756.

What was measured:
[1] = target: T1, TgoT DNA polymerase (V93Q D141A E143A A485L) (Thermococcus gorgonarius) (UniProt P56689); conditions: does not synthesise HNA much beyond six incorporations
T1 sequence: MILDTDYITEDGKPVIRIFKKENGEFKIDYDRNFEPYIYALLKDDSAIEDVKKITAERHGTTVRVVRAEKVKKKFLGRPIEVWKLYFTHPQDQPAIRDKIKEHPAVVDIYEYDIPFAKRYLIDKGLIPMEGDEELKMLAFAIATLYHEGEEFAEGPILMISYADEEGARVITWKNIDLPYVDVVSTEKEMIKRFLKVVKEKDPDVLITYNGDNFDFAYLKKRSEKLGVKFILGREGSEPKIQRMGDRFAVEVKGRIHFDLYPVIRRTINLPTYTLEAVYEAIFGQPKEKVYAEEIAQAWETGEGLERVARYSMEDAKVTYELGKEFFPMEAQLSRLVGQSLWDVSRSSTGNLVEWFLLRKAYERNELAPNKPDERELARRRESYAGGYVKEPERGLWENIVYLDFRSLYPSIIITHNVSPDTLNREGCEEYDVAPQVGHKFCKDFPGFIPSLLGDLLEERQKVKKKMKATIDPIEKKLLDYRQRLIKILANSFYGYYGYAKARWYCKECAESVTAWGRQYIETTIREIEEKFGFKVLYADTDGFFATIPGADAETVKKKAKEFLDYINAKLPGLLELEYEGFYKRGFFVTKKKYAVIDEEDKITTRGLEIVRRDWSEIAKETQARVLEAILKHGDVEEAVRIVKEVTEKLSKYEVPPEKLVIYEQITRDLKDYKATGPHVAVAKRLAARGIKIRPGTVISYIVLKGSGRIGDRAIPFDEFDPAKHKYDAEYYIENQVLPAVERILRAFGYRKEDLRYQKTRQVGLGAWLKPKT

[2] = test system: TAT (trans-activator of transcription) (HIV); test: competition

Row | Substance | activity (hNTP incorporations) [1] | IC50 ([2]; IC50 of HNA anti-TAR aptamer T5S8-7 (binds TAR RNA) displacing TAT from immobilized miniTAR, CI95 1.3-2.8 nM) | IC50 ([2]; IC50 of RNA anti-TAR aptamer R06 (binds TAR RNA) displacing TAT from immobilized miniTAR, CI95 166-675 nM)
1 | E. coli tRNA supE gene primer-template | 6 | – | –
2 | miniTAR RNA | – | 1.9 nM | 313 nM
